# Laboratory results: PMC6901440
# B1: Flag-GSDMD full length, P57764 L150Q (protein)
# chain: MGSAFERVVRRVVQELDHGGEFIPVTSLQSSTGFQPYCLVVRKPSSSWFWKPRYKCVNLSIKDILEPDAAEPDVQRGRSFHFYDAMDGQIQGSVELAAPGQAKIAGGAAVSDSSSTSMNVYSLSVDPNTWQTLLHERHLRQPEHKVLQQQRSRGDNVYVVTEVLQTQKEVEVTRTHKREGSGRFSLPGATCLQGEGQGHLSQKKTVTIPSGSTLAFRVAQLVIDSDLDVLLFPDKKQRTFQPPATGHKRSTSEGAWPQLPSGLSMMRCLHNFLTDGVPAEGAFTEDFQGLRAEVETISKELELLDRELCQLLLEGLEGVLRDQLALRALEEALEQGQSLGPVEPLDGPAGAVLECLVLSSGMLVPELAIPVVYLLGALTMLSETQHKLLAEALESQTLLGPLELVGSLLEQSAPWQERSTMSLPPGLLGNSWGEGAPAWVLLDECGLELGEDTPHVCWEPQAQGRMCALYASLALLSGLSQEPH
# Biological target: Bcl-2 recombinant protein, P10415
# Experiment: in vitro binding of Bcl-2 recombinant protein to immunoprecipitated Flag-GSDMD, western blot with band values printed under the Bcl-2 blot
# Conditions: chain shown with the change; incubated for one hour, then heavily washed; parent: 1
# Sequence of Bcl-2 recombinant protein, P10415 (P10415 whole entry): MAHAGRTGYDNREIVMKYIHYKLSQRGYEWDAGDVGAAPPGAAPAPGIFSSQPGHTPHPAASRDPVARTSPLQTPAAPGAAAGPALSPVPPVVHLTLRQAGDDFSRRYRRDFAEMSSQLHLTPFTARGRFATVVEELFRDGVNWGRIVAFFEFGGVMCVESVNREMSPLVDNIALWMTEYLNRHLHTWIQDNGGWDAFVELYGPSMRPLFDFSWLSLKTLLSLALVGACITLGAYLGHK
binder,measurement,value
B1,ratio to parent,0.45
